# From IntAct's records for PubMed 21743457
# B1: Cell division control protein 13 (Saccharomyces cerevisiae), P32797 (parent)
# chain: MDTLEEPECPPHKNRIFVSSSKDFEGYPSKAIVPVQFVALLTSIHLTETKCLLGFSNFERRGDQSQEDQYLIKLKFKDRGSERLARITISLLCQYFDIELPDLDSDSGASPTVILRDIHLERLCFSSCKALYVSKHGNYTLFLEDIKPLDLVSVISTISTKSTNSSKHSSSELISECDLNNSLVDIFNNLIEMNRDEKNRFKFVKLIHYDIELKKFVQDQQKVLSQKSKAAAINPFFVPNRLGIPYIESQNEFNSQLMTLNVDEPTTDISNMGEEMHDSADPIEDSDSSTTSSTGKYFSSKSYIQSQTPERKTSVPNNWHDDDSGSKRKRKLSFHSPNASSIRKAISYEQLSLASVGSVERLEGKIVGMNPPQFASINEFKYCTLKLYFTQLLPNVPDKVLVPGVNCIEIVIPTRERICELFGVLNCQSDKISDILLLEKPDRISVEVERILWDNDKTASPGMAVWSLKNISTDTQAQAQVQVPAQSSASIDPSRTRMSKMARKDPTIEFCQLGLDTFETKYITMFGMLVSCSFDKPAFISFVFSDFTKNDIVQNYLYDRYLIDYENKLELNEGFKAIMYKNQFETFDSKLRKIFNNGLRDLQNGRDENLSQYGIVCKMNIKVKMYNGKLNAIVRECEPVPHSQISSIASPSQCEHLRLFYQRAFKRIGESAISRYFEEYRRFFPIHRNGSHLAKLRFDEVKHEPKKSPTTPALAEHIPDLNADVSSFDVKFTDISSLLDSSARLPRPQQTHKSNTLYSCEGRIIAIEYHASDLCFHITNELPLLQTRGLAPERVLQLHIITSKNFAYFFNRSSAYLQRQPLEEKYTQLAQFLGHSFKFNITSSLTLFPDTTVALQIWCPIECTFRELQQQLAHPKVAAAPDSGSLDCAINATVNPLRLLAAQNGVTVKKEEDNDDDAGAVPTS
# partner: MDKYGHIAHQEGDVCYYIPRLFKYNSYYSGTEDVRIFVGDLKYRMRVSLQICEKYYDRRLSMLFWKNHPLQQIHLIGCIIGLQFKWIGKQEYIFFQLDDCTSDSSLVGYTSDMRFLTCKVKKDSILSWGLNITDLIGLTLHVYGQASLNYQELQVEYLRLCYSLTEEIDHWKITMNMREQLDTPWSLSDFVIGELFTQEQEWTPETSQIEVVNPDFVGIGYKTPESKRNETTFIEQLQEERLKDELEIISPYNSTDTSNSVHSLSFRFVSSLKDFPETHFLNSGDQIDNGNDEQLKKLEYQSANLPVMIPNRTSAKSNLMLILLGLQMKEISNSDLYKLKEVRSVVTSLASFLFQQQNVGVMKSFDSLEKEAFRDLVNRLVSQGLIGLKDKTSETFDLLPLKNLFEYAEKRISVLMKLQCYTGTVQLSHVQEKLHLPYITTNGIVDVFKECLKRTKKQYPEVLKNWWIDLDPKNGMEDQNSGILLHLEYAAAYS
# B2: Cell division control protein 13 (Saccharomyces cerevisiae), P32797 (parent)
# chain: B1 chain
# Variants of: B1
# Conditions: with stn1_yeast STN1, P38960
row,effect of a mutation on the interaction,Variant
1,decreasing interaction,K909R

# Variants of: B2
# Conditions: with smt3_yeast SMT3, Q12306
# smt3_yeast SMT3, Q12306, sequence (Q12306 whole entry): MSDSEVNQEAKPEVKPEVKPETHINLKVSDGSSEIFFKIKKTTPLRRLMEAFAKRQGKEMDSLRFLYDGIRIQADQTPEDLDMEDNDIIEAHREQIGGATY
row,effect of a mutation on the interaction,Variant
1,disrupting interaction,K909R
